From patent US20140087995A1 (published 2014)
Numbered stars: 1 amine (or outer) side, 2 acyl side, 3 side chain; on linkers, the order of the positions; unused ones are H or OH. Bridge positions count the residues as written; N and C are the ends. Side chains are listed from the residue outwards. Ends that are not written are not given here. * marks the point of attachment. C20 diacid = O=C(O)CCCCCCCCCCCCCCCCCCC(=O)*; γGlu = O=C(O)[C@H](CCC(=O)[*:2])N[*:1]; AEEA = NCCOCCOCC(=O)O

T1: human amylin receptor (amylin 3(a) receptor: human calcitonin receptor with RAMP-3) (human, UniProt P30988 25-474; O60896 24-148)
T1 sequence (looked up) 1: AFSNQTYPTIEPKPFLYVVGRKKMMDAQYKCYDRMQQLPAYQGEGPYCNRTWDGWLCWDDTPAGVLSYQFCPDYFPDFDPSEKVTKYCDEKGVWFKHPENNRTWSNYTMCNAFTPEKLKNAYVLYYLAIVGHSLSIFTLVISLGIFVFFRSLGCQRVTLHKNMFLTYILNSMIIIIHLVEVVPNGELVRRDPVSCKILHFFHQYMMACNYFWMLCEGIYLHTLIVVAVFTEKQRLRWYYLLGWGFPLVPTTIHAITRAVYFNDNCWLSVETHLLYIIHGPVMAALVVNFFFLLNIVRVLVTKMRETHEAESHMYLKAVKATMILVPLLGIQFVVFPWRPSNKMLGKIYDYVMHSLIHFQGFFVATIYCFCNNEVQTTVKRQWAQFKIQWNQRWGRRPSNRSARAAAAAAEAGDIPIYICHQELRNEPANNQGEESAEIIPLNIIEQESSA
T1 sequence (looked up) 2: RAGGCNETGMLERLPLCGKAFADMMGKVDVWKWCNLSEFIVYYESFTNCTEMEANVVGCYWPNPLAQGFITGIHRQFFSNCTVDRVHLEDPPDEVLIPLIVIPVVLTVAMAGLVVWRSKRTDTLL

T2: human calcitonin receptor (human, UniProt P30988 25-474)
T2 sequence (looked up): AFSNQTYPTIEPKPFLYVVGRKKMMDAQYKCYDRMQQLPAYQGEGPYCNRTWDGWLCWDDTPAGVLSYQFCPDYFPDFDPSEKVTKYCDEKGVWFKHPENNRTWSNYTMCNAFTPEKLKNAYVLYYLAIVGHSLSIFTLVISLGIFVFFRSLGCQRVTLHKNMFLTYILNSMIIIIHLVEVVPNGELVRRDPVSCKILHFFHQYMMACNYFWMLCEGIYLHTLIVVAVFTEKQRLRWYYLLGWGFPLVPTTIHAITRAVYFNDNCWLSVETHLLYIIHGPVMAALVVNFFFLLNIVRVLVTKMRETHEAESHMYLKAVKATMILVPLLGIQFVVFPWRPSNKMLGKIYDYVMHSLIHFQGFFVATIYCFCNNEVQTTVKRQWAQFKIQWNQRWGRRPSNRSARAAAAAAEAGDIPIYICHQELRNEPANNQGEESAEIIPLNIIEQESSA


Assays:
[1] = molecular target: T1, human amylin receptor (amylin 3(a) …); test: cell-based or functional assay
[2] = molecular target: T2, human calcitonin receptor; test: cell-based or functional assay

hAmylin-R funct. EC50 [1] [nM] | Ratio hCT/hAmylin funct. [2] | hCTR funct. EC50 [2] [nM] | Binder
0.146 | 1.6 | 0.238 | {C20 diacid-γGlu-γGlu}-KCNTATCATQRLAEFLRHSSPNFGAIPSSTNVGSNTP-NH2 (disulfide 2-7; SMILES CC[C@H](C)[C@H](NC(=O)[C@H](C)NC(=O)CNC(=O)[C@H](Cc1ccccc1)NC(=O)[C@H](CC(N)=O)NC(=O)[C@@H]1CCCN1C(=O)[C@H](CO)NC(=O)[C@H](CO)NC(=O)[C@H](Cc1c[nH]cn1)NC(=O)[C@H](CCCNC(=N)N)NC(=O)[C@H](CC(C)C)NC(=O)[C@H](Cc1ccccc1)NC(=O)[C@H](CCC(=O)O)NC(=O)[C@H](C)NC(=O)[C@H](CC(C)C)NC(=O)[C@H](CCCNC(=N)N)NC(=O)[C@H](CCC(N)=O)NC(=O)[C@@H](NC(=O)[C@H](C)NC(=O)[C@@H]1CSSC[C@H](NC(=O)[C@H](CCCCN)NC(=O)CC[C@H](NC(=O)CC[C@H](NC(=O)CCCCCCCCCCCCCCCCCCC(=O)O)C(=O)O)C(=O)O)C(=O)N[C@@H](CC(N)=O)C(=O)N[C@@H]([C@@H](C)O)C(=O)N[C@@H](C)C(=O)N[C@@H]([C@@H](C)O)C(=O)N1)[C@@H](C)O)C(=O)N1CCC[C@H]1C(=O)N[C@@H](CO)C(=O)N[C@@H](CO)C(=O)N[C@H](C(=O)N[C@@H](CC(N)=O)C(=O)N[C@H](C(=O)NCC(=O)N[C@@H](CO)C(=O)N[C@@H](CC(N)=O)C(=O)N[C@H](C(=O)N1CCC[C@H]1C(N)=O)[C@@H](C)O)C(C)C)[C@@H](C)O, also called compound 14)
0.217 | 46.2 | 10 | K([AEEA-AEEA-γGlu-C20 diacid])CNTATCATQRLANFLRHSSPNFGAIPSSTNVGSETY-NH2 (disulfide 2-7; N-terminus assumed; SMILES CC[C@H](C)[C@H](NC(=O)[C@H](C)NC(=O)CNC(=O)[C@H](Cc1ccccc1)NC(=O)[C@H](CC(N)=O)NC(=O)[C@@H]1CCCN1C(=O)[C@H](CO)NC(=O)[C@H](CO)NC(=O)[C@H](Cc1c[nH]cn1)NC(=O)[C@H](CCCNC(=N)N)NC(=O)[C@H](CC(C)C)NC(=O)[C@H](Cc1ccccc1)NC(=O)[C@H](CC(N)=O)NC(=O)[C@H](C)NC(=O)[C@H](CC(C)C)NC(=O)[C@H](CCCNC(=N)N)NC(=O)[C@H](CCC(N)=O)NC(=O)[C@@H](NC(=O)[C@H](C)NC(=O)[C@@H]1CSSC[C@H](NC(=O)[C@@H](N)CCCCNC(=O)COCCOCCNC(=O)COCCOCCNC(=O)CC[C@H](NC(=O)CCCCCCCCCCCCCCCCCCC(=O)O)C(=O)O)C(=O)N[C@@H](CC(N)=O)C(=O)N[C@@H]([C@@H](C)O)C(=O)N[C@@H](C)C(=O)N[C@@H]([C@@H](C)O)C(=O)N1)[C@@H](C)O)C(=O)N1CCC[C@H]1C(=O)N[C@@H](CO)C(=O)N[C@@H](CO)C(=O)N[C@H](C(=O)N[C@@H](CC(N)=O)C(=O)N[C@H](C(=O)NCC(=O)N[C@@H](CO)C(=O)N[C@@H](CCC(=O)O)C(=O)N[C@H](C(=O)N[C@@H](Cc1ccc(O)cc1)C(N)=O)[C@@H](C)O)C(C)C)[C@@H](C)O, also called compound 25)
0.133 | 22.6 | 3 | K([γGlu-C20 diacid])CNTATCATQRLANFLRHSSPNFGAIPSSTNVGSETY-NH2 (disulfide 2-7; N-terminus assumed; SMILES CC[C@H](C)[C@H](NC(=O)[C@H](C)NC(=O)CNC(=O)[C@H](Cc1ccccc1)NC(=O)[C@H](CC(N)=O)NC(=O)[C@@H]1CCCN1C(=O)[C@H](CO)NC(=O)[C@H](CO)NC(=O)[C@H](Cc1c[nH]cn1)NC(=O)[C@H](CCCNC(=N)N)NC(=O)[C@H](CC(C)C)NC(=O)[C@H](Cc1ccccc1)NC(=O)[C@H](CC(N)=O)NC(=O)[C@H](C)NC(=O)[C@H](CC(C)C)NC(=O)[C@H](CCCNC(=N)N)NC(=O)[C@H](CCC(N)=O)NC(=O)[C@@H](NC(=O)[C@H](C)NC(=O)[C@@H]1CSSC[C@H](NC(=O)[C@@H](N)CCCCNC(=O)CC[C@H](NC(=O)CCCCCCCCCCCCCCCCCCC(=O)O)C(=O)O)C(=O)N[C@@H](CC(N)=O)C(=O)N[C@@H]([C@@H](C)O)C(=O)N[C@@H](C)C(=O)N[C@@H]([C@@H](C)O)C(=O)N1)[C@@H](C)O)C(=O)N1CCC[C@H]1C(=O)N[C@@H](CO)C(=O)N[C@@H](CO)C(=O)N[C@H](C(=O)N[C@@H](CC(N)=O)C(=O)N[C@H](C(=O)NCC(=O)N[C@@H](CO)C(=O)N[C@@H](CCC(=O)O)C(=O)N[C@H](C(=O)N[C@@H](Cc1ccc(O)cc1)C(N)=O)[C@@H](C)O)C(C)C)[C@@H](C)O, also called compound 27) [N^ε1-[(4S)-4-carboxy-4-(19-carboxynonadecanoylamino)butanoyl]-[Arg17,Pro21,Pro27,Glu35]-h-amylin]
0.212 | 29.9 | 6.34 | K([AEEA-γGlu-C20 diacid])CNTATCATQRLANFLRHSSPNFGAIPSSTNVGSETY-NH2 (disulfide 2-7; N-terminus assumed; SMILES CC[C@H](C)[C@H](NC(=O)[C@H](C)NC(=O)CNC(=O)[C@H](Cc1ccccc1)NC(=O)[C@H](CC(N)=O)NC(=O)[C@@H]1CCCN1C(=O)[C@H](CO)NC(=O)[C@H](CO)NC(=O)[C@H](Cc1c[nH]cn1)NC(=O)[C@H](CCCNC(=N)N)NC(=O)[C@H](CC(C)C)NC(=O)[C@H](Cc1ccccc1)NC(=O)[C@H](CC(N)=O)NC(=O)[C@H](C)NC(=O)[C@H](CC(C)C)NC(=O)[C@H](CCCNC(=N)N)NC(=O)[C@H](CCC(N)=O)NC(=O)[C@@H](NC(=O)[C@H](C)NC(=O)[C@@H]1CSSC[C@H](NC(=O)[C@@H](N)CCCCNC(=O)COCCOCCNC(=O)CC[C@H](NC(=O)CCCCCCCCCCCCCCCCCCC(=O)O)C(=O)O)C(=O)N[C@@H](CC(N)=O)C(=O)N[C@@H]([C@@H](C)O)C(=O)N[C@@H](C)C(=O)N[C@@H]([C@@H](C)O)C(=O)N1)[C@@H](C)O)C(=O)N1CCC[C@H]1C(=O)N[C@@H](CO)C(=O)N[C@@H](CO)C(=O)N[C@H](C(=O)N[C@@H](CC(N)=O)C(=O)N[C@H](C(=O)NCC(=O)N[C@@H](CO)C(=O)N[C@@H](CCC(=O)O)C(=O)N[C@H](C(=O)N[C@@H](Cc1ccc(O)cc1)C(N)=O)[C@@H](C)O)C(C)C)[C@@H](C)O, also called compound 26)
0.27 | 3.8 | 1.03 | {C20 diacid-γGlu}-KCNTATCATQRLAEFLRHSSPNFGAIPSSTNVGSETY-NH2 (disulfide 2-7; SMILES CC[C@H](C)[C@H](NC(=O)[C@H](C)NC(=O)CNC(=O)[C@H](Cc1ccccc1)NC(=O)[C@H](CC(N)=O)NC(=O)[C@@H]1CCCN1C(=O)[C@H](CO)NC(=O)[C@H](CO)NC(=O)[C@H](Cc1c[nH]cn1)NC(=O)[C@H](CCCNC(=N)N)NC(=O)[C@H](CC(C)C)NC(=O)[C@H](Cc1ccccc1)NC(=O)[C@H](CCC(=O)O)NC(=O)[C@H](C)NC(=O)[C@H](CC(C)C)NC(=O)[C@H](CCCNC(=N)N)NC(=O)[C@H](CCC(N)=O)NC(=O)[C@@H](NC(=O)[C@H](C)NC(=O)[C@@H]1CSSC[C@H](NC(=O)[C@H](CCCCN)NC(=O)CC[C@H](NC(=O)CCCCCCCCCCCCCCCCCCC(=O)O)C(=O)O)C(=O)N[C@@H](CC(N)=O)C(=O)N[C@@H]([C@@H](C)O)C(=O)N[C@@H](C)C(=O)N[C@@H]([C@@H](C)O)C(=O)N1)[C@@H](C)O)C(=O)N1CCC[C@H]1C(=O)N[C@@H](CO)C(=O)N[C@@H](CO)C(=O)N[C@H](C(=O)N[C@@H](CC(N)=O)C(=O)N[C@H](C(=O)NCC(=O)N[C@@H](CO)C(=O)N[C@@H](CCC(=O)O)C(=O)N[C@H](C(=O)N[C@@H](Cc1ccc(O)cc1)C(N)=O)[C@@H](C)O)C(C)C)[C@@H](C)O, also called compound 22)
